Measured values taken from publication PMC7707817.

Tests used:
[1] = target: ClpP+C (E. coli ClpP C91V, C113A with a cysteine appended after Asn193) (E. coli); assay: SEC; Superdex-200 of the quenched cross-linking reaction; 50 mM HEPES-KOH pH 7.5, 300 mM NaCl, 20 mM MgCl2, 10% glycerol, 2 mM TCEP; peak 2 = uncrosslinked ClpP+C
[2] = target: ClpP+C (E. coli ClpP C91V, C113A with a cysteine appended after Asn193) (E. coli); assay: cross-linking; E613CClpA‡ (4 µM) and ClpP+C (9.6 µM) mixed; 50 mM HEPES-KOH pH 7, 300 mM NaCl, 20 mM MgCl2, 10% glycerol, 5 mM EDTA; 5 mM ATPγS, 200 µM bismaleimidoethane (BMOE), room temperature, 45 min; quenched with 50 mM DTT; peak-1 pool of Superdex-200 SEC read by reducing SDS-PAGE (Coomassie)

stoichiometry N [1] | percent of ClpA crosslinked to ClpP [2] [%] | Substance
14 |  | ClpP+C (E. coli ClpP C91V, C113A with a cysteine appended after Asn193) (enzyme)
 | 90 | E613C ClpA‡ (E. coli ClpAΔC9 with C47S, C203S, C243S and E613C) (from UniProt P0ABH9 1-749) (enzyme)
